From PMC3840788, “The role of Cdc42 and Gic1 in the regulation of septin filament formation and dissociation” (eLife, 2013)

T1: Cdc10(30-322) (subunit of the septin-Cdc10(30-322) complex) (yeast (S. cerevisiae), UniProt P25342 30-322)
T1 construct: Never tested alone: it stood inside the complex m5
T1 sequence (looked up): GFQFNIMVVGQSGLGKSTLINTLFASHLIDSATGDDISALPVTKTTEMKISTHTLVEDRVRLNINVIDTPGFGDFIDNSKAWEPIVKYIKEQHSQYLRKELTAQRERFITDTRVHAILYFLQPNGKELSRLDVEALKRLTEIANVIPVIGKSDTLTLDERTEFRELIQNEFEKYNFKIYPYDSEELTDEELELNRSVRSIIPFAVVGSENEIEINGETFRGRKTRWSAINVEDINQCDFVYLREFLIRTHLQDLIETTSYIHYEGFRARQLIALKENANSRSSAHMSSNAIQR

T2: Cdc10 (subunit of the purified yeast septin complex) (yeast (S. cerevisiae), UniProt P25342 1-322)
T2 construct: Cdc10, yeast septin; Never tested alone: it stood inside the complex m2; the subunit that is touched was assigned from antibody labelling, complexes lacking subunits and the known order of the subunits; source: subunit of the septin complex expressed and purified as described earlier (Farkasovsky et al., 2005)
T2 sequence (looked up): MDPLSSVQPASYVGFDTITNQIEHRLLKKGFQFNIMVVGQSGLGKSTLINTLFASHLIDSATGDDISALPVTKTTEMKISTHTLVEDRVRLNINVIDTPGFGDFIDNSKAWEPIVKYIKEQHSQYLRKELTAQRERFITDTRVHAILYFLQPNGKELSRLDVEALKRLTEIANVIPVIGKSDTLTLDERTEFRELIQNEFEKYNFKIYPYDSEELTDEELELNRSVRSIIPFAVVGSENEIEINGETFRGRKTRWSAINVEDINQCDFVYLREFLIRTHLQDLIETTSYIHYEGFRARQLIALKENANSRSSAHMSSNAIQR

T3: septin-Cdc11Δ complex (Cdc3, Cdc10, Cdc12) (yeast (S. cerevisiae), UniProt P32457 1-520; P25342 1-322; P32468 1-407)
T3 construct: Cdc3, yeast septin; Cdc10, yeast septin; Cdc12, yeast septin; Septin complex devoid of the Cdc11 subunit; copies: + +
T3 sequence (looked up) 1: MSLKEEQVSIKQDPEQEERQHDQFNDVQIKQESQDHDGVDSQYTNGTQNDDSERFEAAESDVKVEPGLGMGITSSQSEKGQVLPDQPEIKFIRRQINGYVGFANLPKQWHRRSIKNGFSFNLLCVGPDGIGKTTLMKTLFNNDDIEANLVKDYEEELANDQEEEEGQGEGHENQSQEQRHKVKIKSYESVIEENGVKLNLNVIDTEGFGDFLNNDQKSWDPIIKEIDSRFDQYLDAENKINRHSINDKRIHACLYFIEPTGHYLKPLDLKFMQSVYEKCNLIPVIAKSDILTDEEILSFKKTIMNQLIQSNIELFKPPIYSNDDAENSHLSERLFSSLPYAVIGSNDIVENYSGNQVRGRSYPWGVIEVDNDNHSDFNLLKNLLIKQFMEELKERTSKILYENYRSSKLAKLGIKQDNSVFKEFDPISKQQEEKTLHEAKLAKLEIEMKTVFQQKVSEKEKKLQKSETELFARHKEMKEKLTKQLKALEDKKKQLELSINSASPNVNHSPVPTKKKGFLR
T3 sequence (looked up) 2: T2 sequence (looked up)
T3 sequence (looked up) 3: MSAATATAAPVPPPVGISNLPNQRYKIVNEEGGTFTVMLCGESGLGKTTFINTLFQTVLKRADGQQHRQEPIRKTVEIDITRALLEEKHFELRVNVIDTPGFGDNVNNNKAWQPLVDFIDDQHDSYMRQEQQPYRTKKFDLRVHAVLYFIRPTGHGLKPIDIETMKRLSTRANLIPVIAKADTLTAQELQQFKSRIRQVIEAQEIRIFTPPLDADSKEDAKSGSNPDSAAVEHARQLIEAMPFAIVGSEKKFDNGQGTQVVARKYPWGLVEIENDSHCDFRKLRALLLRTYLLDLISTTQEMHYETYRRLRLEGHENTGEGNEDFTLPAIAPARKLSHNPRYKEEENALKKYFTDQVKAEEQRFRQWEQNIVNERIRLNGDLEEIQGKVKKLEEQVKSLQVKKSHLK

B1: Gic1(104-314) (domain or fragment, yeast (S. cerevisiae), UniProt P38785 104-314, looked up)
chain: MFKKKDLLSRRHGSAKTAKQSSISTPFDFHHISHANGKREDNPLESHEEKHDVESLVKFTSLAPQPRPDSNVSSKYSNVVMNDSSRIVSSSTIATTMDSHHDGNETNNTPNGNKQLDSPTDLEMTLEDLRNYTFPSVLGDSVSEKTNPSSPSVSSFSGKFKPRELSALHTPELGNCFNVDQSLNSPGNRISVDDVLKFYYQCSETSTPRNT
notes: Gic1, yeast, residues 104-314 (N-terminal 103 amino acids deleted); gic1(310-942) in nucleotides; contains the CRIB domain and the C-terminus; Called simply Gic1 throughout the text; The methods say GST was cleaved with thrombin; Dimer by gel filtration; source: E. coli BL21 (DE3) Rosetta, purified (Ni-NTA, glutathione sepharose, Superdex S200)
B2: yeast septin complex (Cdc3, Cdc10, Cdc11, Cdc12) (complex, yeast (S. cerevisiae))
chain 1: T3 sequence (looked up) 1
chain 2: T2 sequence (looked up)
chain 3: MSGIIDASSALRKRKHLKRGITFTVMIVGQSGSGRSTFINTLCGQQVVDTSTTILLPTDTSTEIDLQLREETVELEDDEGVKIQLNIIDTPGFGDSLDNSPSFEIISDYIRHQYDEILLEESRVRRNPRFKDGRVHCCLYLINPTGHGLKEIDVEFIRQLGSLVNIIPVISKSDSLTRDELKLNKKLIMEDIDRWNLPIYNFPFDEDEISDEDYETNMYLRTLLPFAIIGSNEVYEMGGDVGTIRGRKYPWGILDVEDSSISDFVILRNALLISHLHDLKNYTHEILYERYRTEALSGESVAAESIRPNLTKLNGSSSSSTTTRRNTNPFKQSNNINNDVLNPASDMHGQSTGENNETYMTREEQIRLEEERLKAFEERVQQELLLKRQELLQREKELREIEARLEKEAKIKQEE
chain 4: T3 sequence (looked up) 3
notes: Cdc3, yeast septin; Cdc10, yeast septin; Cdc11, yeast septin; Cdc12, yeast septin; Octamer at high salt (500 mM NaCl), filaments at low salt (100 mM NaCl); also called septin octamers; septin filaments; source: expressed and purified as described earlier (Farkasovsky et al., 2005); copies: 2 + 2 + 2 + 2

Key:
[1] = target: the molecule itself; test: SEC; gel filtration of purified Gic1(104-314) alone against protein standards; calculated 23.38 kDa, elutes at 49 kDa; monomer to dimer
[2] = target: T1, Cdc10(30-322) (subunit of the …); test: negative-stain electron microscopy with single particle analysis; 0.3 µM septin hetero-oligomers, alone or with 1.5 µM Gic1, dialysed overnight at 4°C from high-salt buffer against low-salt buffer (100 mM NaCl, 20 mM Tris-HCl pH 7.5, 1 mM DTT); antibody labelling against Cdc11; adsorbed to a lipid monolayer; conditions: both partners purified
[3] = target: T4, septin-Cdc10(30-322) complex (Cdc3, Cdc10(30-322), Cdc11, Cdc12) (yeast (S. cerevisiae), UniProt P32457 1-520; P25342 30-322; P32458 1-415; P32468 1-407); test: as above; conditions: both partners purified
T4 construct: Cdc3, yeast septin; Cdc11, yeast septin; Cdc12, yeast septin; Seen by EM as tetramers or inside-out octamers; no filaments at low salt; also called polymerization-impaired septin complexes; non-polymerizing septin; copies: + + +

[4] = target: T2, Cdc10 (subunit of the purified yeast …); test: as above; conditions: both partners purified
[5] = target: B2; test: as above; conditions: both partners purified
[6] = target: T3, septin-Cdc11Δ complex (Cdc3, Cdc10, …); test: as above; conditions: both partners purified
[7] = target: the molecule itself; test: negative-stain electron microscopy with single particle analysis; 0.1 µM septin octamers, with or without 0.5 µM Gic1; Cdc42-GppNHp or Cdc42-GDP at the concentration of Gic1 or 10 times higher (0.25, 1.5, 5 µM), 2 to 60 min; antibody labelling against Cdc3

| Binder | stoichiometry N [1] | binding result [2] | binding result [3] | binding result [4] | binding result [5] | binding result [6] | binding result [7] |
| --- | --- | --- | --- | --- | --- | --- | --- |
| B1 | ~2 | binds | binds | binds | binds | binds |  |
| B2 |  |  |  |  |  |  | binds |
